This is an account of results in patent publication US20240261333A1, “NOVEL TARGETS FOR ENHANCING ANTI-TUMOR IMMUNITY” (THE BROAD INSTITUTE, INC., priority 2021, published 2024).

The chains are these.
T1: B3GNT2 (Homo sapiens, UniProt Q9NY97)
T1 construct: The respective ORFs of candidate genes [CD274 (NM_014143), MCL1 (NM_021960), JUNB (NM_002229), and B3GNT2 (NM_006577)] were synthesized; expressed in transfected cells; host or cells: A375 melanoma cells (lentiviral ORF overexpression)
T1 sequence (Q9NY97 1-397): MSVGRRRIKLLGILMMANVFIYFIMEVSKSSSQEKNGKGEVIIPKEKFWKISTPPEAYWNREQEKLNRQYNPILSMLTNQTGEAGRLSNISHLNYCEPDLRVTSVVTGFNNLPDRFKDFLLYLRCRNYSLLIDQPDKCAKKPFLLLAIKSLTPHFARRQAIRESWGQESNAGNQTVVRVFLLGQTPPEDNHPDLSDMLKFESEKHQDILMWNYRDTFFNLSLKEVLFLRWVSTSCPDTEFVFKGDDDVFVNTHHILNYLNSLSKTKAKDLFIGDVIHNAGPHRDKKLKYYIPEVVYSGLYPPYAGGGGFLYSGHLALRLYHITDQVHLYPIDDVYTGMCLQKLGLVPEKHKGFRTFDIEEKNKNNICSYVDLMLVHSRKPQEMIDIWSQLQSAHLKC

B1: CDSN (protein)
chain: KSIGTFSDPCKDPTRITSPNDPCLTGKGDSSGFSSYSGSSSSGSSISSARSSGGGSSGSSSGSSIAQGGSAGSFKPGTGYSQVSYSSGSGSSLQGASGSSQLGSSSSHSGNSGSHSGSSSSHSSSSSSFQFSSSSFQVGNGSALPTNDNSYRGILNPSQPGQSSSSSQTFGVSSSGQSVSSNQRPCSSDIPDSPCSGGPIVSHSGPYIPSSHSVSGGQRPVVVVVDQHGSGAPGVVQGPPCSNGGLPGKPCPPITSVDKSYGGYEVVGGSSDSYLVPGMTYSKGKIYPVGYFTKENPVKGSPGVPSFAAGPPISEGKYFSSNPIIPSQSAASSAIAFQPVGTGGVQLCGGGSTGSKGPCSPSSSRVPSSSSISSSSGLPYHPCGSASQSPCSPPGTGSFSSSSSSQSSGKIILQPCGSKSSSSGHPCMSVSSLTLTGGPDGSPHPDPSAGAKPCGSSSAGKIPCRSIRDILAQVKPLGPQLADPEVFLPQGELLNSP
B2: PBXIP1 (protein)
chain: MDPESERALQAPHSPSKTDGKELAGTMDGEGTLFQTESPQSGSILTEETEVKGTLEGDVCGVEPPGPGDTVVQGDLQETTVVTGLGPDTQDLEGQSPPQSLPSTPKAAWIREEGRCSSSDDDTDVDMEGLRRRRGREAGPPQPMVPLAVENQAGGEGAGGELGISLNMCLLGALVLLGLGVLLFSGGLSESETGPMEEVERQVLPDPEVLEAVGDRQDGLREQLQAPVPPDSVPSLQNMGLLLDKLAKENQDIRLLQAQLQAQKEELQSLMHQPKGLEEENAQLRGALQQGEAFQRALESELQQLRARLQGLEADCVRGPDGVCLSGGRGPQGDKAIREQGPREQEPELSFLKQKEQLEAEAQALRQELERQRRLLGSVQQDLERSLQDASRGDPAHAGLAELGHRLAQKLQGLENWGQDPGVSANASKAWHQKSHFQNSREWSGKEKWWDGQRDRKAEHWKHKKEESGRERKKNWGGQEDREPAGRWKEGRPRVEESGSKKEGKRQGPKEPPRKSGSFHSSGEKQKQPRWREGTKDSHDPLPSWAELLRPKYRAPQGCSGVDECARQEGLTFFGTELAPVRQQELASLLRTYLARLPWAGQLTKELPLSPAFFGEDGIFRHDRLRFRDFVDALEDSLEEVAVQQTGDDDEVDDFEDFIFSHFFGDKALKKRSGKKDKHSQSPRAAGPREGHSHSHHHHHRG
B3: TAGLN (protein)
chain: ANKGPSYGMSREVQSKIEKKYDEELEERLVEWIIVQCGPDVGRPDRGRLGFQVWLKNGVILSKLVNSLYPDGSKPVKVPENPPSMVFKQMEQVAQFLKAAEDYGVIKTDMFQTVDLFEGKDMAAVQRTLMALGSLAVTKNDGHYRGDPNWFMKKAQEHKREFTESQLQEGKHVIGLQMGSNRGASQAGMTGYGRPRQIIS
B4: IL13RA2 (protein)
chain: DTEIKVNPPQDFEIVDPGYLGYLYLQWQPPLSLDHFKECTVEYELKYRNIGSETWKTIITKNLHYKDGFDLNKGIEAKIHTLLPWQCTNGSEVQSSWAETTYWISPQGIPETKVQDMDCVYYNWQYLLCSWKPGIGVLLDTNYNLFYWYEGLDHALQCVDYIKADGQNIGCRFPYLEASDYKDFYICVNGSSENKPIRSSYFTFQLQNIVKPLPPVYLTFTRESSCEIKLKWSIPLGPIPARCFDYEIEIREDDTTLVTATVENETYTLKTTNETRQLCFVVRSKVNIYCSDDGIWSEWSDKQCWEGEDLSKKTLLRFWLPFGFILILVIFVTGLLLRKPNTYPKMIPEFFCDT
B5: POF1B (protein)
chain: MSSSYWSETSSSSCGTQQLPEVLQCQPQHYHCYHQSSQAQQPPEKNVVYERVRTYSGPMNKVVQALDPFNSREVLSPLKTTSSYQNLVWSDHSQELHSPTLKISTCAPSTLHITQNTEQELHSPTVKLTTYPQTTIRKYVVQNPEQEPLSQFLRGSHFFPGNNVIYEKTIRKVEKLNTDQGCHPQAQCHHHIIQQPQVIHSAHWQQPDSSQQIQAITGNNPISTHIGNELCHSGSSQICEQVIIQDDGPEKLDPRYFGELLADLSRKNTDLYHCLLEHLQRIGGSKQDFESTDESEDIESLIPKGLSEFTKQQIRYILQMRGMSDKSLRLVLSTFSNIREELGHLQNDMTSLENDKMRLEKDLSFKDTQLKEYEELLASVRANNHQQQQGLQDSSSKCQALEENNLSLRHTLSDMEYRLKELEYCKRNLEQENQNLRMQVSETCTGPMLQAKMDEIGNHYTEMVKNLRMEKDREICRLRSQLNQYHKDVSKREGSCSDFQFKLHELTSLLEEKDSLIKRQSEELSKLRQEIYSSHNQPSTGGRTTITTKKYRTQYPILGLLYDDYEYIPPGSETQTIVIEKTEDKYTCVSSLGHF
B6: TXN (protein)
chain: VKQIESKTAFQEALDAAGDKLVVVDFSATWCGPCKMIKPFFHSLSEKYSNVIFLEVDVDDCQDVASECEVKCMPTFQFFKKGQKVGEFSGANKEKLEATINELV
B7: IMMT (protein)
chain: STSGSSGLTTGKIAGAGLLFVGGGIGGTILYAKWDSHFRESVEKTIPYSDKLFEMVLGPAAYNVPLPKKSIQSGPLKISSVSEVMKESKQPASQLQKQKGDTPASATAPTEAAQIISAAGDTLSVPAPAVQPEESLKTDHPEIGEGKPTPALSEASSSSIRERPPEEVAARLAQQEKQEQVKIESLAKSLEDALRQTASVTLQAIAAQNAAVQAVNAHSNILKAAMDNSEIAGEKKSAQWRTVEGALKERRKAVDEAADALLKAKEELEKMKSVIENAKKKEVAGAKPHITAAEGKLHNMIVDLDNVVKKVQAAQSEAKVVSQYHELVVQARDDFKRELDSITPEVLPGWKGMSVSDLADKLSTDDLNSLIAHAHRRIDQLNRELAEQKATEKQHITLALEKQKLEEKRAFDSAVAKALEHHRSEIQAEQDRKIEEVRDAMENEMRTQLRRQAAAHTDHLRDVLRVQEQELKSEFEQNLSEKLSEQELQFRRLSQEQVDNFTLDINTAYARLRGIEQAVQSHAVAEEEARKAHQLWLSVEALKYSMKTSSAETPTIPLGSAVEAIKANCSDNEFTQALTAAIPPESLTRGVYSEETLRARFYAVQKLARRVAMIDETRNSLYQYFLSYLQSLLLFPPQQLKPPPELCPEDINTFKLLSYASYCIEHGDLELAAKFVNQLKGESRRVAQDWLKEARMTLETKQIVEILTAYASAVGIGTTQVQPE
B8: KCTD5 (protein)
chain: AENHCELLSPARGGIGAGLGGGLCRRCSAGLGALAQRPGSVSKWVRLNVGGTYFLTTRQTLCRDPKSFLYRLCQADPDLDSDKDETGAYLIDRDPTYFGPVLNYLRHGKLVINKDLAEEGVLEEAEFYNITSLIKLVKDKIRERDSKTSQVPVKHVYRVLQCQEEELTQMVSTMSDGWKFEQLVSIGSSYNYGNEDQAEFLCVVSKELHNTPYGTASEPSEKAKILQERGSRM

The target in one experiment is T1, B3GNT2. Description: Co-IP of FLAG-tagged B3GNT2 followed by mass spectrometry. In kind it is cell-based. The note with it: Co-IP followed by mass spectrometry of B3GNT2; C-term tag, FLAG pull-down. Also noted: C-term IgG / C-term flag: unit not given here. As to the method: Cells were plated in 10-cm cell culture dishes and grown to 60-80% confluency. For each condition, two biological replicates were harvested for co-IP. Cells were washed with PBS and 4 mL of lysis buffer (20 mM HEPES, 1% Triton X-100, 150 mM NaCl, 1 mM EDTA, and 10% glycerol) containing protease inhibitor cocktail was added. Cells were scraped and lysate was incubated at 4° C. under rotary agitation for 1 h. Lysate was centrifuged at 14,000×g for 10 min at 4° C. Supernatant was transferred to a new tube and an aliquot was taken as the input. […] For Western blots, 10 μg/mL Chicken Anti-FLAG (Aves labs ET-DY100) and IgY control (R&D Systems AB-101-C) antibodies were biotinylated (Thermo Fisher Scientific 90407) and added to the respective conditions. Lysates with antibodies were incubated at 4° C. under rotary agitation overnight. For each mL of lysate, 50 μL of Pierce Protein A/G Magnetic Beads (Mass spectrometry; Thermo Fisher Scientific 88803) or Pierce Streptavidin Magnetic Beads (Western blot; Thermo Fisher Scientific 88817) was washed twice with lysis buffer. Lysates with antibodies were added to the beads and incubated at 4° C. under rotary agitation for 4 h. Beads were washed with lysis buffer 3 times and resuspended in lysis buffer for storage. […] This solution was subjected to solid phase extraction to concentrate the peptides and remove unwanted reagents followed by injection onto a Shimadzu HPLC with fraction collector. Eight fractions were collected and after concentration were injected on a Waters NanoAcquity HPLC equipped with a self-packed Aeris 3 μm C18 analytical column 0.075 mm by 20 cm, (Phenomenex). Peptides were eluted using standard reverse-phase gradients. The effluent from the column was analyzed using a Thermo Orbitrap Elite mass spectrometer (nanospray configuration) operated in a data dependent manner for 54 minutes. […] Scaffold Q+S (Proteome Software) was used to provide consensus reports for the identified proteins.
For B1, the C-term flag turned out to be 0.
Same read-out and setting: next, B2: 4.
The same measure, in the same setting: next, B3: 3; B4: 2; B5: 0.
On the same count and under the same terms, the same measure for B6: 3.
In turn, B7 came in with a C-term flag of 26.
With B8, the C-term flag stood at 3.

Still in this experiment, the particulars now being: Co-IP followed by mass spectrometry of B3GNT2; C-term tag, IgG pull-down.
As to B1, the “C-term IgG” value is reported as 0.
On the same count and under the same terms, next, B2: 0; B3: 0.
For the molecule B4, the “C-term IgG” value was 0.
On the same count and under the same terms, the same measure for B5: 0; for B6: 0; for B7: 16.
The same measure, in the same setting: next, B8: 0.

Staying with this experiment, now noted: Co-IP followed by mass spectrometry of B3GNT2; N-term tag, FLAG pull-down.
As to B1, the “N-term FLAG” value stood at 5.
B2: the “N-term FLAG” value came out at 2.
With B3, the “N-term FLAG” value was determined as 2.
The same measure, in the same setting: next, B4: 3; B5: 5.
Same read-out and setting: the same measure for B6: 3; for B7: 23; for B8: 2.

Staying with this experiment, now noted: Co-IP followed by mass spectrometry of B3GNT2; N-term tag, IgG pull-down.
With B1, the “N-term IgG” value was found to be 0.
On the same count and under the same terms, next, B2: 0; B3: 0.
Still for that read-out and setting: next, B4: 0.
On the same count and under the same terms, next, B5: 0; B6: 3.
Take B7: the “N-term IgG” value is recorded as 17.
The same measure, in the same setting: the same measure for B8: 0.
